This assay addresses SARS-CoV-2 D614G spike (SARS-CoV-2, UniProt P0DTC2 14-1208). Nature of the assay: SPR. On the technique in general: Surface plasmon resonance follows binding to a sensor surface in real time, without labels.

What is called Kd is a measure of binding affinity in units of concentration. Read a high Kd as weaker binding.

B1: 1C3 antigen-binding fragment (Fab) (Fab, V domains shown)
VH: QVQLLESGGGLVQPGRSLRLSCAASGFTFDDYAMHWVRQPPGKGLEWVSGSSWNSGSVVYADSVKGRFTISRDSAKNSLHLQMNSLRVEDTALYYCAKAVDPTRGSYSPDYGFDIWGQGTMVTVS
VL: not shown
In turn, B1 registered a Kd of 0.043 nM. In other words, the picomolar range.

B2: Fab 2A10 (antibody, V domains shown)
VH: QVQLVESGGGLIQPGGSLRLSCAASEFIVSSNYMSWVRQAPGKGLEWVSLLYSGGTTYYADSVKGRFTISRDNSKNTLFLQMNSLRAEDTAMYYCARDRGPWLHDYWGQGTLVTVS
VL: DIVMTQSPSSLSASVGDRVTITCQASQDINKYCNWYQQKPGKAPKLLIYDASNLETGVPSRFSGSGSGTDFTFTINSLQPEDIATYYCQQYDNLPPTFGGGTKVEIK
As for B2, binding was put at a Kd of 0.161 nM.

The values are drawn from patent US20250382353A1 (published 2025).
